Measured values reported in patent US20090311283A1.
Where two headings read alike, the source gives them in different places.

Assays:
HLA-A*0201 (Human) [1] = biological target: HLA-A*0201 (Human)
HLA-A*0301 (human) [2] = experiment: competitive inhibition of 125I-labelled probe peptide binding to purified HLA, gel filtration; conditions: scale: ratio
HLA-A*0201 (human) [3] = experiment: competition with 125I-labelled probe peptide for purified HLA, gel filtration
HLA-A*0301 (human) [4] = experiment: as above
HLA-B*5401 (Human) = experiment: as above
HLA-B*3501 (Human) = experiment: as above
HLA-B*5101 (Human) = experiment: as above
HLA-A*0201 (human) [5] = biological target: HLA-A*0201 (human)
HLA-A*3101 (human) [6] = experiment: competition with 125I-labelled probe peptide for purified HLA-A*3101, gel filtration; ratio to standard peptide 941.12
HLA-A*0301 (human) [7] = experiment: competition with 125I probe peptide on purified HLA-A*0301; relative to standard peptide 941.12; conditions: remark: other sources report otherwise
HLA-A*3101 (human) [8] = experiment: competition with 125I probe peptide on purified HLA-A*3101; relative to standard peptide 941.12; conditions: remark: other sources report otherwise
HLA-A*6801 (human) = experiment: competition with 125I probe peptide on purified HLA-A*6801; relative to standard peptide 941.12; conditions: remark: other sources report otherwise
HLA-A*1101 (human) = conditions: remark: other sources report otherwise
[9] = remark: other sources report otherwise

## FVLGGCRHKL (modifications not checked) [HBV X 132 …]
HLA-A*0201 (Human) [1]
  binding affinity ratio (IC50 of standard peptide / IC50 of test peptide): 0.003

## VLCLRPVGA (modifications not checked) [HBV X 15 peptide …]
HLA-A*0201 (Human) [1]; [9]
  binding affinity ratio (IC50 of standard peptide / IC50 of test peptide): 0.0014

## FTSAICSVV (modifications not checked) [HBV POL 518 …]
HLA-A*0201 (Human) [1]
  binding affinity ratio (IC50 of standard peptide / IC50 of test peptide): 0.009

## FLVDKNPHNT (modifications not checked) [HBV POL 363 …]
HLA-A*0201 (Human) [1]
  binding affinity ratio (IC50 of standard peptide / IC50 of test peptide): 0.0012

## ILLLCLIFL (modifications not checked) [HBV ENV 249 peptide …]
HLA-A*0201 (Human) [1]
  binding affinity ratio (IC50 of standard peptide / IC50 of test peptide): 0.0015

## SLNFMGYVI (modifications not checked) [HBV POL 581 9-mer …]
HLA-A*0201 (Human) [1]
  binding affinity ratio (IC50 of standard peptide / IC50 of test peptide): 0.0038

## WLWGMDIDPYK (modifications not checked) [HBV NUC 26 peptide …]
HLA-A*0301 (human) [2]; [9]
  binding affinity ratio (relative binding to standard peptide): 0.003

## NLLSSNLSWL (modifications not checked) [HBV POL 406 peptide …]
HLA-A*0201 (Human) [1]
  binding affinity ratio (IC50 of standard peptide / IC50 of test peptide) (ratio to standard peptide): 0.0016

## PILSTLPETTV (modifications not checked)
HLA-A*0201 (human) [3]
  binding affinity ratio (IC50 of standard peptide / IC50 of test peptide): 0.0001

## WLQFRNSK (modifications not checked) [HBV POL 314 peptide WLQFRNSK]
HLA-A*0301 (human) [2]
  binding affinity ratio (relative binding to standard peptide): -0.0002

## WIRTPPAY (modifications not checked) [HBV NUC 125 peptide WIRTPPAY]
HLA-A*0301 (human) [2]
  binding affinity ratio (relative binding to standard peptide): -0.0002

## VVRRRGRSPR (modifications not checked) [HBV NUC 177 peptide …]
HLA-A*0301 (human) [4]
  binding affinity ratio (IC50 of standard peptide / IC50 of test peptide) (ratio to standard peptide): 0.0027

## LPLDKGIKPYY (modifications not checked) [HBV POL 123 peptide …]
HLA-B*5401 (Human)
  binding affinity ratio (IC50 of standard peptide / IC50 of test peptide): 0.0001
HLA-B*3501 (Human)
  binding affinity ratio (IC50 of standard peptide / IC50 of test peptide): 0.0009
HLA-B*5101 (Human)
  binding affinity ratio (IC50 of standard peptide / IC50 of test peptide): 0.0001

## LVSFGVWI (modifications not checked) [HBV NUC 119 peptide LVSFGVWI]
HLA-A*0201 (Human) [1]
  binding affinity ratio (IC50 of standard peptide / IC50 of test peptide) (ratio to standard peptide): 0.0004

## NLGNLNVSI (modifications not checked) [HBV POL 42 peptide …]
HLA-A*0201 (Human) [1]
  binding affinity ratio (IC50 of standard peptide / IC50 of test peptide) (ratio to standard peptide): 0.0047

## WGMDIDPYK (modifications not checked) [HBV NUC 28 peptide …]
HLA-A*0301 (human) [4]
  binding affinity ratio (IC50 of standard peptide / IC50 of test peptide) (ratio to standard peptide): -0.0003

## PIILGFRKI (modifications not checked) [HBV POL 496 peptide …]
HLA-A*0201 (human) [3]
  binding affinity ratio (IC50 of standard peptide / IC50 of test peptide): 0.0001

## GLSPTVWL (modifications not checked) [HBV ENV 348 peptide GLSPTVWL]
HLA-A*0201 (Human) [1]
  binding affinity ratio (IC50 of standard peptide / IC50 of test peptide): 0.0036

## WLSLDVSAA (modifications not checked) [HBV POL 414 9-mer peptide …]
HLA-A*0201 (human) [5]
  binding affinity ratio (IC50 of standard peptide / IC50 of test peptide): 0.0059

## GVWIRTPPA (modifications not checked) [HBV NUC 123 peptide …]
HLA-A*0201 (Human) [1]
  binding affinity ratio (IC50 of standard peptide / IC50 of test peptide): 0.003

## LLGCAANWI (modifications not checked) [HBV POL 752 peptide …]
HLA-A*0201 (human) [5]
  binding affinity ratio (IC50 of standard peptide / IC50 of test peptide): 0.0011

## FIIFLFIL (modifications not checked) [HBV ENV 243 FIIFLFIL]
HLA-A*0201 (Human) [1]
  binding affinity ratio (IC50 of standard peptide / IC50 of test peptide): 0.0006

## STLPETTVV (modifications not checked) [HBV NUC 141 peptide …]
HLA-A*0201 (Human) [1]
  binding affinity ratio (IC50 of standard peptide / IC50 of test peptide): 0.0019

## VLHKRTLGL (modifications not checked) [HBV X 92 peptide …]
HLA-A*0201 (Human) [1]; [9]
  binding affinity ratio (IC50 of standard peptide / IC50 of test peptide): 0.0012

## WLLGCAANWI (modifications not checked) [HBV POL 751 10-mer peptide …]
HLA-A*0201 (human) [5]
  binding affinity ratio (IC50 of standard peptide / IC50 of test peptide): 0.0053

## PALMPLYACI (modifications not checked) [HBV POL 641 peptide …]
HLA-A*0201 (human) [3]
  binding affinity ratio (IC50 of standard peptide / IC50 of test peptide): 0.0001

## PLEEELPRL (modifications not checked)
HLA-A*0201 (human) [3]
  binding affinity ratio (IC50 of standard peptide / IC50 of test peptide): 0.0003

## YLPLDKGIKPY (modifications not checked)
HLA-A*0301 (human) [2]
  binding affinity ratio (relative binding to standard peptide): -0.0004

## PLEEELPRLA (modifications not checked)
HLA-A*0201 (human) [3]
  binding affinity ratio (IC50 of standard peptide / IC50 of test peptide): 0.0001

## GLSPTVWLSVI (modifications not checked) [HBV ENV 348 peptide …]
HLA-A*0201 (Human) [1]
  binding affinity ratio (IC50 of standard peptide / IC50 of test peptide): 0.0036

## PILSTLPETT (modifications not checked)
HLA-A*0201 (human) [3]
  binding affinity ratio (IC50 of standard peptide / IC50 of test peptide): 0.0001

## YLVSFGVWIR (modifications not checked) [HBV NUC 118 peptide …]
HLA-A*0301 (human) [2]
  binding affinity ratio (relative binding to standard peptide): 0.0005

## VLGGCRHKL (modifications not checked) [HBV X 133 peptide …]
HLA-A*0201 (Human) [1]
  binding affinity ratio (IC50 of standard peptide / IC50 of test peptide): 0.0009

## FTGLYSSTV (modifications not checked) [HBV POL 59 …]
HLA-A*0201 (Human) [1]
  binding affinity ratio (IC50 of standard peptide / IC50 of test peptide): 0.0005

## PLGFFPDHQL (modifications not checked) [HBV ENV 10 peptide …]
HLA-A*0201 (human) [3]
  binding affinity ratio (IC50 of standard peptide / IC50 of test peptide): 0.0002

## LLDYQGML (modifications not checked) [HBV ENV 260 peptide LLDYQGML]
HLA-A*0201 (human) [5]
  binding affinity ratio (IC50 of standard peptide / IC50 of test peptide): 0.0004

## PILSTLPET (modifications not checked)
HLA-A*0201 (human) [3]
  binding affinity ratio (IC50 of standard peptide / IC50 of test peptide): 0.0001

## YVPSALNPA (modifications not checked) [HBV POL 768 peptide …]
HLA-A*0201 (human) [5]
  binding affinity ratio (IC50 of standard peptide / IC50 of test peptide): 0.0039

## IVGLLGFAA (modifications not checked) [HBV POL 625 peptide …]
HLA-A*0201 (Human) [1]
  binding affinity ratio (IC50 of standard peptide / IC50 of test peptide): 0.0009

## WMCLRRFIIFL (modifications not checked) [HBV ENV 237 11-mer peptide …]
HLA-A*0201 (human) [5]
  binding affinity ratio (IC50 of standard peptide / IC50 of test peptide): 0.0019

## NLNVSIPWT (modifications not checked) [HBV POL 45 peptide …]
HLA-A*0201 (Human) [1]
  binding affinity ratio (IC50 of standard peptide / IC50 of test peptide) (ratio to standard peptide): 0.0005

## LLTRILTI (modifications not checked) [HBV ENV 184 peptide LLTRILTI]
HLA-A*0201 (human) [5]
  binding affinity ratio (IC50 of standard peptide / IC50 of test peptide): 0.0026

## RVTGGVFLV (modifications not checked) [HBV POL 357 9-mer …]
HLA-A*0201 (Human) [1]; [9]
  binding affinity ratio (IC50 of standard peptide / IC50 of test peptide): 0.0041

## PARDVLCLR (modifications not checked) [HBV X 11 peptide …]
HLA-A*3101 (human) [6]
  binding affinity ratio (IC50 of standard peptide / IC50 of test peptide): 0.01
HLA-A*3301 (human)
  binding affinity ratio (IC50 of standard peptide / IC50 of test peptide): 0.018

## FLFILLLCL (modifications not checked) [HBV ENV 246 …]
HLA-A*0201 (Human) [1]
  binding affinity ratio (IC50 of standard peptide / IC50 of test peptide): 0.0002

## TSAICSVVR (modifications not checked) [HBV POL 519 peptide …]
HLA-A*0301 (human) [7]
  binding affinity ratio (IC50 standard peptide / IC50 test peptide): 0.0005
HLA-A*3101 (human) [8]
  binding affinity ratio (IC50 standard peptide / IC50 test peptide): 0.06
HLA-A*6801 (human)
  binding affinity ratio (IC50 standard peptide / IC50 test peptide): 0.082
HLA-A*3301 (human); [9]
  binding affinity ratio (IC50 standard peptide / IC50 test peptide): 0.02

## SAGPCALR (modifications not checked) [HBV X 65 peptide SAGPCALR]
HLA-A*0301 (human) [7]
  binding affinity ratio (IC50 standard peptide / IC50 test peptide): -0.0002
HLA-A*3101 (human) [8]
  binding affinity ratio (IC50 standard peptide / IC50 test peptide): 0.0029
HLA-A*6801 (human)
  binding affinity ratio (IC50 standard peptide / IC50 test peptide): 0.036
HLA-A*1101 (human)
  binding affinity ratio (IC50 standard peptide / IC50 test peptide): 0.002

## LIFLLVLL (modifications not checked) [HBV ENV 254 peptide LIFLLVLL]
HLA-A*0201 (human) [5]
  binding affinity ratio (IC50 of standard peptide / IC50 of test peptide): 0.0025

## VVRRRGRSPR (modifications not checked) [… (HBV NUC 177)]
HLA-A*0301 (human) [4]
  binding affinity ratio (IC50 of standard peptide / IC50 of test peptide): 0.0027

## YSLNFMGY (modifications not checked) [HBV POL 580 peptide YSLNFMGY]
HLA-A*0301 (human) [2]
  binding affinity ratio (relative binding to standard peptide): -0.0002

## GLLGFAAPFT (modifications not checked) [HBV POL 627 peptide …]
HLA-A*0201 (Human) [1]
  binding affinity ratio (IC50 of standard peptide / IC50 of test peptide): 0.0049

## YLPLDKGIK (modifications not checked)
HLA-A*0301 (human) [2]
  binding affinity ratio (relative binding to standard peptide): 0.0001

## SVRFSWLSLL (modifications not checked) [HBV ENV 330 peptide …]
HLA-A*0201 (Human) [1]
  binding affinity ratio (IC50 of standard peptide / IC50 of test peptide): 0.0004
